Results from the supplement of paper PMC12338614.
± gives the uncertainty stated by the source.

B1: library; numbered along this chain (parent)
chain: MEVVDPQQLGMFTEGELMSVGMDTFIHRIDSTEVIYQPRRKRAKLIGKYLMGDLLGEGSYGKVKEVLDSETLCRRAVKILKKKKLRRIPNGEANVKKEIQLLRRLRHKNVIQLVDVLYNEEKQKMYMVMEYCVCGMQEMLDSVPEKRFPVCQAHGYFCQLIDGLEYLHSQGIVHKDIKPGNLLLTTGGTLKISDLGVAEALHPFAADDTCRTSQGSPAFQPPEIANGLDTFSGFKVDIWSAGVTLYNITTGLYPFEGDNIYKLFENIGKGSYAIPGDCGPPLSDLLKGMLEYEPAKRFSIRQIRQHSWFRKKHPPAEAPVPIPPSPDTKDRWRSMTVVPYLEDLHGADEDEDLFDIEDDIIYTQDFTVPGQVPEEEASHNGQRRGLPKAVCMNGTEAAQLSTKSRAEGRAPNPARKACSASSKIRRLSACKQQ

Variants of: B1
Experiment: STK11 functional score (HeLa growth suppression), rescaled enrichment; synonymous median = 1, nonsense median = 0 (normalised score)
Conditions: with HeLa; variant type: missense
Procedure: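 Deep mutational scan (TileSeq/POPCode codon randomisation) of full-length codon-optimised STK11 cDNA integrated at a Bxb1 landing pad (AAVS1) in HeLa cells. Restoring functional STK11 suppresses HeLa proliferation. Variant frequencies were measured by NGS before and after about two weeks of growth. The error-corrected enrichment log-ratio was rescaled so that synonymous median = 1 and nonsense median = 0, scores above 1 were compressed, and codon-level and three biological replicate scores were combined; error is the bootstrapped standard error. Scale: synonymous median = 1, nonsense median = 0; below 0.5 = damaging.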

MEVVDPQQLGMFTEGELMSVGMDTFIHRIDSTEVIYQPRRKRAKLIGKYLMGDLLGEGSYGKVKEVLDSETLCRRAVKILKKKKLRRIPNGEANVKKEIQLLRRLRHKNVIQLVDVLYNEEKQKMYMVMEYCVCGMQEMLDSVPEKRFPVCQAHGYFCQLIDGLEYLHSQGIVHKDIKPGNLLLTTGGTLKISDLGVAEALHPFAADDTCRTSQGSPAFQPPEIANGLDTFSGFKVDIWSAGVTLYNITTGLYPFEGDNIYKLFENIGKGSYAIPGDCGPPLSDLLKGMLEYEPAKRFSIRQIRQHSWFRKKHPPAEAPVPIPPSPDTKDRWRSMTVVPYLEDLHGADEDEDDFDIEDDIIYTQDFTVPGQVPEEEASHNGQRRGLPKAVCMNGTEAAQLSTKSRAEGRAPNPARKACSASSKIRRLSACKQQ [L353D] and MEVVDPQQLGMFTEGELMSVGMDTFIHRIDSTEVIYQPRRKRAKLIGKYLMGDLLGEGSYGKVKEVLDSETLCRRAVKILKKKKLRRIPNGEANVKKEIQLLRRLRHKNVIQLVDVLYNEEKQKMYMVMEYCVCGMQEMLDSVPEKRFPVCQAHGYFCQLIDGLEYLHSQGIVHKDIKPGNLLLTTGGTLKISDLGVAEALHPFAADNTCRTSQGSPAFQPPEIANGLDTFSGFKVDIWSAGVTLYNITTGLYPFEGDNIYKLFENIGKGSYAIPGDCGPPLSDLLKGMLEYEPAKRFSIRQIRQHSWFRKKHPPAEAPVPIPPSPDTKDRWRSMTVVPYLEDLHGADEDEDLFDIEDDIIYTQDFTVPGQVPEEEASHNGQRRGLPKAVCMNGTEAAQLSTKSRAEGRAPNPARKACSASSKIRRLSACKQQ [D208N] are within error of each other in STK11 functional score: 1.61 ± 0.16 for the first, 1.4 ± 0.22 for the second.

First: MEVVDPQQLGMFTEGELMSVGMDTFIHRIDSTEVIYQPRRKRAKLIGKYLMGDLLGEGSYGKVKEVLDSETLCRRAVKILKKKKLRRIPNAEANVKKEIQLLRRLRHKNVIQLVDVLYNEEKQKMYMVMEYCVCGMQEMLDSVPEKRFPVCQAHGYFCQLIDGLEYLHSQGIVHKDIKPGNLLLTTGGTLKISDLGVAEALHPFAADDTCRTSQGSPAFQPPEIANGLDTFSGFKVDIWSAGVTLYNITTGLYPFEGDNIYKLFENIGKGSYAIPGDCGPPLSDLLKGMLEYEPAKRFSIRQIRQHSWFRKKHPPAEAPVPIPPSPDTKDRWRSMTVVPYLEDLHGADEDEDLFDIEDDIIYTQDFTVPGQVPEEEASHNGQRRGLPKAVCMNGTEAAQLSTKSRAEGRAPNPARKACSASSKIRRLSACKQQ [G91A]
Second: MEVVDPQQLGMFTEGELMSVGMDTFIHRIDSTEVIYQPRRKRAKLIGKYLMGDLLGEGSYGKVKEVLDSETLCRRAVKILKKKKLRRIPNGEANVKKEIQLLRRLRHKNVIQLVDVLYNEEKQKMYMVMEYCVCGMQEMLDSVPEKRFPVCQAHGYFCQLIDGLEYLHSQGIVHKDIKPGNLLLTTGGTLKISDLGVAEALHPFAADDTCRTSQGSPAFQPPEIANGLDTFSGFKVDIWSAGVTLYNITTGLYPFEGDNIYKLFENIGKGSYAIPGDCGPPLSDLLKGMLEYEPAKRFSIRQIRQHSWFRKKHPPAEAPVPIPPSPDTKDRWRSMTVVPYLEDLHGADEDEDLFDIEDDIIYTQDFTVPGQVPEEEASHNGQRRGLPKAVCANGTEAAQLSTKSRAEGRAPNPARKACSASSKIRRLSACKQQ [M392A]
The STK11 functional score of the first is lower: 0.99 ± 0.19 for the first, 1.56 ± 0.25 for the second.

Going from MEVVDPQQLGMFTEGELMSVGMDTFIHRIDSTEVIYQPRRKRAKLIGKYLMGDLLGEGSYGKVKEVLDSETLCRRAVKILKKKKLRRIPNGEANVKKEIQLLRRLRHKNVIQLVDVLYNEEKQKMYMVMEYCVCGMQEMLDSVPEKRFPVCQAHGYFCQLIDGLEYLHSQGIVHKDIKPGNLLLTTGGTLKISDLGVAEALHPFAADDTCRTSQGSPAFQPPEIANGLDTFSGFKVDIWSAGVTLYNITTGLYPFEGDNIYKLFENIGKGSYAIPGDCGPPLSDLLKGMLEYEPAKRFSIRQIRQHSWFRKKHPPAEAPVPIPPSPDTKDRWRSMTVVPYLEDLHGADEFEDLFDIEDDIIYTQDFTVPGQVPEEEASHNGQRRGLPKAVCMNGTEAAQLSTKSRAEGRAPNPARKACSASSKIRRLSACKQQ [D350F] to MEVVDPQQLGMFTEGELMSVGMDTFIHRIDSTEVIYQPRRKRAKLIGKYLMGDLLGEGSYGKVKEVLDSETLCRRAVKILKKKKLRRIPNGEANVKKEIQLLRRLRHKNVIQLVDVLYNEEKQKMYMVMEYCVCGMQEMLDSVPEKRFPVCQAHGYFCQLIDGLEYLHSQGIVHKDIKPGNLLLTTGGTLKISDLGVAEALHPFAADDTCRTSQGSPAFQPPEIANGLDTFSGFKVDIWSAGVTLYNITTGLYPFEGDNIYKLFENIGKGSYAIPGDCGPPLSDLLKGMLEYEPAKRFSIRQIRQHSWFRKKHPPAEAPVPIPPSPDTKDRWRSMTVVPYLEDLHHADEDEDLFDIEDDIIYTQDFTVPGQVPEEEASHNGQRRGLPKAVCMNGTEAAQLSTKSRAEGRAPNPARKACSASSKIRRLSACKQQ [G346H], the STK11 functional score rises from 0.0925 ± 0.3 to 1.6 ± 0.14.

MEVVDPQQLGMFTEGELMSVGMDTFIHRIDSTEVIYQPRRKRAKLIGKYLMGDLLGEGSYGKVKEVLDSETLCRRAVKILKKKKLRRIPNGEANVKKEIQLLRRLRHKNVIQLVDVLYNEEKQKMYMVMEYCVCGMQEMLDSVPEKRFPVCQAHGYFCQLIDGLEYLHSQGIVHKDIKPGNLLLTTGGTLKISDLGVAEALHPFAADDTCRTSQGSPAFQPPEIANGLDTFSGFKVDIWSAGVTLYNITTGLYPFEGDNIYKLFENIGKGSYAIPGDCGPPLSDLLKGMLEYEPAKRFSIRQIRQHSWFRKKHPPAEAPVPIPPSPDTKDRWRSMTVVPYLEDLHGADEDEDLFDIEDDIIYTQDFTYPGQVPEEEASHNGQRRGLPKAVCMNGTEAAQLSTKSRAEGRAPNPARKACSASSKIRRLSACKQQ [V368Y] showed an STK11 functional score of 1.54 ± 0.24.
